Data published in patent US20260092116A1 (DARTSBIO PHARMACEUTICALS, published 2026).

T1: his-tagged human B7H3 antigen protein (human, UniProt Q5ZPR3 29-461, limits assumed)
T1 construct: also called B7H3-his; CD276; not shown: his tag
T1 sequence (looked up): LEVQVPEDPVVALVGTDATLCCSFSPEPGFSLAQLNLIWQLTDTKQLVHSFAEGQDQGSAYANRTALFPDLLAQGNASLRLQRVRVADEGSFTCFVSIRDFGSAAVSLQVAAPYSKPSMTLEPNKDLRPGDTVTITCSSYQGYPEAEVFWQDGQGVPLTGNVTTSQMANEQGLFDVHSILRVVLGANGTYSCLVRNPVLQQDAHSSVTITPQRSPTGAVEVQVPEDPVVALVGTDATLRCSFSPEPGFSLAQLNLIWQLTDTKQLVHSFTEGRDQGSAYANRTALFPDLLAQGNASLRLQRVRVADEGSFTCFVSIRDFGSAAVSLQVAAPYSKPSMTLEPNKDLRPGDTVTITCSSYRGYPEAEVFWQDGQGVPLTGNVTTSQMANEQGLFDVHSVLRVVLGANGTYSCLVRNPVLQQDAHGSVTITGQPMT

T2: B7H3 antigen (huB7H3 antigen) (human, UniProt Q5ZPR3 29-461, limits assumed)
T2 sequence (looked up): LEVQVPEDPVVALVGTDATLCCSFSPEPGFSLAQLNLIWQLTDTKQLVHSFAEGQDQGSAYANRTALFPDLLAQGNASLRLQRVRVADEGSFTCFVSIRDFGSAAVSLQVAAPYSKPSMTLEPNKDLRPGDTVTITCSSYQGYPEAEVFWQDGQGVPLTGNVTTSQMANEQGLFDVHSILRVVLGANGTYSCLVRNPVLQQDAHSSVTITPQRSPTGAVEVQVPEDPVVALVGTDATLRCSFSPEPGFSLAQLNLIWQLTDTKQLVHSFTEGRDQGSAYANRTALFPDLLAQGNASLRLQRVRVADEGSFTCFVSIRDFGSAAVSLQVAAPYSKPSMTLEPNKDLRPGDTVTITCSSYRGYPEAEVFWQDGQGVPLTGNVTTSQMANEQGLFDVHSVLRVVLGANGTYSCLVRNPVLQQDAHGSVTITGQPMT


Key:
[1] = target: T3, his-tagged human PDL1 antigen protein (human, UniProt Q9NZQ7 19-238); test: ELISA on coated PDL1-his, bispecific antibody after 1 hour at 60°C
T3 construct: also called PDL1-his; not shown: his tag
T3 sequence (Q9NZQ7 19-238 limits assumed): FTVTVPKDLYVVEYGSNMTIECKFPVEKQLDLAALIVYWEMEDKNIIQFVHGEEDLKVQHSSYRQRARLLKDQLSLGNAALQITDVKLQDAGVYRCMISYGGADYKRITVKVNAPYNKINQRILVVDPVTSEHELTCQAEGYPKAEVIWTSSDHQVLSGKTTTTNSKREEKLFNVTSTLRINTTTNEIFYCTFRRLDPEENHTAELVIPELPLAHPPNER
Procedure: (§1) A 96-well ELISA plate was coated with 2 μg/ml of his-tagged PDL1 or B7H3 antigen protein at 4° C. overnight, and 100 μl of Casein blocking solution was added to each well the next day for blocking at 37° C. for 1 hour. […] After incubation at 37° C. for 1 hour, unbound antibodies were washed off with 0.1% PBST, and bound antibodies were detected using horseradish peroxidase (HRP)-conjugated goat anti-human IgG (H+L) antibody (Jackson ImmunoResearch, USA), and 50 μl of 3,3′,5,5′-tetramethylbenzidine substrate (TMB) was used for color development. After standing for 5 minutes, 50 μl of 2 M sulfuric acid was added to stop the color development, and then the absorbance was detected using a SpectraMax M5e (Molecular Devices) microplate reader at OD450 nm. The antibody concentration was plotted against the OD450 reading using a 4-parameter fitting method, and the EC₅₀ was calculated.

[2] = target: T3, his-tagged human PDL1 antigen protein; test: binding ELISA, plate coated with his-tagged PDL1 at 2 ug/ml
Procedure: as §1

[3] = target: T4, biotinylated PDL1 antigen (human, UniProt Q9NZQ7 19-238, biotinylated (sites not given)); test: flow cytometry, blocking of biotinylated PDL1 (50 nM) binding to CHO-PD1 cells
T4 construct: also called human PDL1 (biotinylated)
T4 sequence (Q9NZQ7 19-238 limits assumed): as above
Procedure: The mixed solution was then incubated with the cells at 4° C. for 45 minutes, and unbound antigens were washed off with PBS.
The cells were then fluorescently stained with PE-streptavidin. Finally, the mean fluorescence intensity (MFI) of the PE channel in the flow cytometer was read, the antibody concentration was plotted against MFI, and the IC₅₀ of the antibody was calculated using a four-parameter fitting.

[4] = target: T1, his-tagged human B7H3 antigen protein; test: ELISA on coated B7H3-his, bispecific antibody not heat-treated (4°C)
Procedure: as §1

[5] = target: T3, his-tagged human PDL1 antigen protein; test: BLI (Octet), antibody on Protein A probe, PDL1-his from 200 nM in 2-fold dilutions
Procedure: (§2) Kon and Koff values were calculated using the software provided by the supplier to obtain the KD value of the antibody.

[6] = target: T3, his-tagged human PDL1 antigen protein; test: ELISA on coated PDL1-his, bispecific antibody not heat-treated (4°C)
Procedure: as §1

[7] = target: T1, his-tagged human B7H3 antigen protein; test: binding ELISA, plate coated with his-tagged B7H3 at 2 ug/ml
Procedure: as §1

[8] = target: T1, his-tagged human B7H3 antigen protein; test: ELISA on coated B7H3-his, bispecific antibody after 1 hour at 60°C
Procedure: as §1

[9] = target: T1, his-tagged human B7H3 antigen protein; test: BLI (Octet), antibody on Protein A probe, B7H3-his from 200 nM in 2-fold dilutions
Procedure: as §2

[10] = target: T2, B7H3 antigen (huB7H3 antigen); test: BLI, VHH-Fc (100 nM) captured on Protein A probe, B7H3 antigen from 200 nM in 2-fold dilutions
Procedure: The above phage clones were sequenced to obtain the B7H3 VHH gene sequence, and its C-terminus was fused with the human Fc protein gene to construct and express B7H3-Fc. 100nM of B7H3 VHH-Fc was captured by the biolayer interferometry method using the Protein A probe and bound to B7H3 antigen with an initial concentration of 200 nM, a 2-fold dilution. The KD value of the antibody binding to antigen was calculated.

Binder	EC50 (read off the curve) [1]	EC50 [2]	IC50 [3]	EC50 (read off the curve) [4]	Kd [5]	EC50 (read off the curve) [6]	EC50 [7]	EC50 (read off the curve) [8]	Kd [9]	Kd [10]
B7H3/PDL1 bispecific antibody (bispecific antibody, human IgG1, kappa, Anti-PDL1 hIgG1 with one anti-B7H3 VHH (75-16) at the C-terminus of each heavy chain's Fc; also called IgG-VHH2) heavy: not shown light: DIQMTQSPSSLSASVGDRVTISCRASQSINTYLHWYQQKLGQAPRLLIYYASQSISGVPSRFSGSGSGTDFTLTINSLEAEDAATYYCQNGHSFPLTFGAGTKVEIKRTVAAPSVFIFPPSDEQLKSGTASVVCLLNNFYPREAKVQWKVDNALQSGNSQESVTEQDSKDSTYSLSSTLTLSKADYEKHKVYACEVTHQGLSSPVTKSFNRGEC	~0.04 nM	0.306 nM	106 nM	~0.02 nM	0.585 nM	~0.04 nM	0.0411 nM	~0.02 nM	8.11 nM	–
B7H3 VHH-Fc (humanized anti-B7H3 VHH 75-16 fused to human Fc) (Fc fusion, also called B7H3-Fc; not shown: human Fc fused to the C-terminus of the VHH) DVQLQESGGGLVQAGGSLRLSCTASGYTLSTIWIGWFRQAPGKGLEGVAAIYIGSGATYYVDSVKGRFTISQDNAKNTVYLQMNSLKPEDTAMYYCAATGGTVGSMVRFSPVGDFGYWGQGTQVTVSS	–	–	–	–	–	–	0.0251 nM	–	–	3.24 nM
PDL1 monoclonal antibody (antibody, human IgG1, kappa, V domains shown, Parental humanized IgG1 of the bispecific antibody; also called PDL1 hIgG1 humanized monoclonal antibody) VH: QVQLVQSGAEVKKPGASVKVSCKASGYTFTTFGVHWVRQAPGKGLEWVGIIWPGGNTNYNSALMSRVTITADESTSTAYMELSSLRSEDTAVYYCARENYGRAMDYWGQGTTVTVSS VL: DIQMTQSPSSLSASVGDRVTISCRASQSINTYLHWYQQKLGQAPRLLIYYASQSISGVPSRFSGSGSGTDFTLTINSLEAEDAATYYCQNGHSFPLTFGAGTKVEIKR	–	0.441 nM	94.2 nM	–	–	–	–	–	–	–
Enoblituzumab (MGA271) (antibody, V domains shown) VH: EVQLVESGGGLVQPGGSLRLSCAASGFTFSSFGMHWVRQAPGKGLEWVAYISSDSSAIYYADTVKGRFTISRDNAKNSLYLQMNSLRDEDTAVYYCGRGRENIYYGSRLDYWGQGTTVTVSS VL: DIQLTQSPSFLSASVGDRVTITCKASQNVDTNVAWYQQKPGKAPKALIYSASYRYSGVPSRFSGSGSGTDFTLTISSLQPEDFATYYCQQYNNYPFTFGQGTKLEIKR	–	–	–	–	–	–	0.0548 nM	–	–	–
